Test results as given in patent US20250339569A1 (3B PHARMACEUTICALS, published 2025).
Starred links: 1 amine or outer side, 2 acyl side, 3 side chain; linkers in the order of their positions; H or OH if unused. Positions of bridges follow the written chain, without caps; N, C: chain ends. Non-standard residues stand in square brackets, D forms with d. Primed or numbered codes have the meaning given here. No end group written: not given here. *: point of attachment. Aph(4SaPy2Ac) = 4-amino-L-phenylalanine, ring amine acylated by (4-sulfamoyl-pyrazol-1-yl)-acetic acid, NS(=O)(=O)c1cnn(CC(=O)Nc2ccc(C[C@H](N[*:1])C(=O)[*:2])cc2)c1; Aph(6SaPyr3) = 4-amino-L-phenylalanine, ring amine acylated by 6-sulfamoylpyridine-3-carboxylic acid, NS(=O)(=O)c1ccc(C(=O)Nc2ccc(C[C@H](N[*:1])C(=O)[*:2])cc2)cn1; Ttds(4) = 1,13-diamino-4,7,10-trioxatridecan-succinamic acid spacer, O=C(CCC(=O)[*:2])NCCCOCCOCCOCCCN[*:1]; Af3(Btda) = 3-amino-L-phenylalanine, ring amine acylated by benzothiadiazine-7-carboxylic acid; Phe(3-NHCO(CH2)3SO2NH2) = N[C@@H](Cc1cccc(NC(=O)CCCS(N)(=O)=O)c1)C(=O)O; DOTA = O=C(O)CN1CCN(CC(=O)O)CCN(CC(=O)*)CCN(CC(=O)O)CC1; Biotin = O=C1N[C@H]2[C@H](CS[C@H]2CCCCC(=O)*)N1; PPAc = 4-carboxymethyl piperazine linker; mXylylene = c1cc(C[*:1])cc(C[*:2])c1; APAc = not defined here; Dap = NC[C@H](N)C(=O)O

Key:
[1] = molecular target: human carbonic anhydrase 9 (CAIX) (human, UniProt Q16790 38-459); assay: FACS binding assay on CAIX-expressing HT-29 cells, biotinylated compound detected with APC-streptavidin; pEC50 category (A = pEC50 >8.0)
Procedure: (§1) CAIX-expressing human HT-29 colorectal cancer cells (DSMZ, RRID: CVCL_0320) were cultured in McCoys's 5A modified medium (Biochrom, #F1015) including 10% fetal calf serum (FCS), 2 mM L-glutamine, 100 U/ml penicillin and 100 μg/mL streptomycin. Cells were detached with Accutase (Biolegend, #423201) and washed in FACS buffer (PBS including 1% FCS). Cells were diluted in FACS buffer to a final concentration of 500.000 cells per ml. 200 μL of the cell suspension were transferred to a u-shaped non-binding 96-well plate (Greiner) and cells were washed in ice-cold FACS buffer.
(§2) When biotinylated compounds were used an additional incubation step with 1 μg/mL APC-Streptavidin (Miltenyi; #130-106-791) in 50 μL FACS buffer for 30 minutes on ice was performed.
(§3) Cells were washed twice with ice-cold FACS buffer and analyzed in an Attune NxT flow cytometer (Thermo Fisher). Median fluorescence intensities (MFI) of the APC/Cy5-channel were calculated by Attune NxT software.

[2] = molecular target: human carbonic anhydrase 9 (CAIX) (human, UniProt Q16790 38-459); assay: FACS competition on HT-29 cells, competitor tracer 3BP-4149; category A = pIC50 >8.0
Procedure: as §1, §2, §3

[3] = molecular target: T1, human carbonic anhydrase IX (CAIX) (human, UniProt Q16790 38-459); assay: FACS competition, HT-29 cells, tracer 3BP-4149; pIC50 category C: 6.1-7.0
Procedure: as §1, §2, §3

[4] = molecular target: T2, Fc-fusion protein of human carbonic anhydrase IX (human, UniProt Q16790 38-414); assay: SPR, CAIX; pKD category A: >8.0
Procedure: Stock solutions of test compounds were prepared by dissolving each compound in DMSO. DMSO stock solution were diluted 1:1000 in Running Buffer without DMSO. […] SPR binding analyses were performed in Single Cycle Kinetic (SCK) mode at 25° C.
(§4) For each test compound, SPR raw data in the form of resonance units (RU) were plotted as sensorgrams using the Biacore™ T200 control software. The signal from the blank sensorgram was subtracted from that of the test compound sensorgram (blank corrected). The blank corrected sensorgram was corrected for baseline drift by subtracting the sensorgram of a SCK run without the test compound (running buffer only). […] Raw data and fit results were imported as text files in IDBS. The pKD value (negative decadic logarithm of dissociation constant) was calculated in the IDBS excel template.

[5] = molecular target: T2, Fc-fusion protein of human carbonic …; assay: SPR, captured hCAIX-Fc; pKD category A: >8.0
[6] = molecular target: T3, human carbonic anhydrase IV (CAIV), biotinylated (human, UniProt P22748 19-283, limits assumed, biotinylated); assay: SPR, biotinylated CAIV captured (Biotin CAPture)
T3 construct: Bought (SinoBiological, Cat # printed 10472-1H081H); also called hCAIV-bio
T3 sequence (P22748 19-283 limits assumed): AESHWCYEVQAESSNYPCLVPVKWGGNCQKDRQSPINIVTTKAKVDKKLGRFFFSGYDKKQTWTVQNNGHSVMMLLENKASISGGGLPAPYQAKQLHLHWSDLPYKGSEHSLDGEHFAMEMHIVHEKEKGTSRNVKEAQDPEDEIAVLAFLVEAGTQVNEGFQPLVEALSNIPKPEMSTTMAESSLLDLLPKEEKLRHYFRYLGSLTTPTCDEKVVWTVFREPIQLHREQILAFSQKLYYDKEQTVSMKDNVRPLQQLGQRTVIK
Text: as §4

[7] = molecular target: T4, human carbonic anhydrase XII (CAXII), biotinylated (human, UniProt O43570 25-301, biotinylated); assay: SPR, biotinylated CAXII captured (Biotin CAPture)
T4 construct: Bought (SinoBiological Cat #10617-H08H); also called hCAXII-bio
T4 sequence (O43570 25-301 limits assumed): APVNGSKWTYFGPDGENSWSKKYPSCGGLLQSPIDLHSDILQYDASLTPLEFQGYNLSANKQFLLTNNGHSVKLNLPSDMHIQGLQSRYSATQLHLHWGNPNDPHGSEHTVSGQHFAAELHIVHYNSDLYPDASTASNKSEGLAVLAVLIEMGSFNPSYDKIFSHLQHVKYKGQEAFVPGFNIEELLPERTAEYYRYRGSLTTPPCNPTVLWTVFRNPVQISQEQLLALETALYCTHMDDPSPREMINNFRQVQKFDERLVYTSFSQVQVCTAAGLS
Text: as §4

[8] = molecular target: T5, human carbonic anhydrase XIV (CAXIV), biotinylated (human, UniProt Q9ULX7 16-290, biotinylated); assay: SPR, biotinylated CAXIV captured (Biotin CAPture)
T5 construct: Bought (SinoBiological Cat #10458-H08H); also called hCAXIV-bio
T5 sequence (Q9ULX7 16-290 limits assumed): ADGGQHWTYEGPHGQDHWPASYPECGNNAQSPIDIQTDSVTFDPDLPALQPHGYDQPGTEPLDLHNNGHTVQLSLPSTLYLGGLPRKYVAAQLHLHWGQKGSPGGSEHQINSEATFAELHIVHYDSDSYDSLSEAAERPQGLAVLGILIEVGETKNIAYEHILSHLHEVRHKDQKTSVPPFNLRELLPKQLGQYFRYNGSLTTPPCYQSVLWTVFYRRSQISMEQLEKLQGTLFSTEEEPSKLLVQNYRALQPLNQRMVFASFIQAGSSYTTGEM
Text: as §4

[9] = molecular target: T2, Fc-fusion protein of human carbonic …; assay: SPR, captured hCAIX-Fc; t1/2 category A: >15.0 min
[10] = molecular target: T1, human carbonic anhydrase IX (CAIX); assay: FACS competition, HT-29 cells, tracer 3BP-2776; pIC50 category A: >8.0
Procedure: as §1, §2, §3

[11] = molecular target: T1, human carbonic anhydrase IX (CAIX); assay: FACS competition, HT-29 cells, tracer 3BP-2776; pIC50 category B: 7.1-8.0
Procedure: as §1, §2, §3

B1: 3BP-2776: H-Met-Val-Tyr-[Cys(3MeBn)-Glu-Gly-Asp-Trp-Leu-Thr-Trp-Gln-Cys]-Ttds-Lys(Bio)-NH2 (peptide)
peptide: H-MVYCEGDWLTWQC[Ttds(4)]K(Biotin)-NH2
modifications: linker 4-13 via mXylylene
SMILES: CSCC[C@H](N)C(=O)N[C@H](C(=O)N[C@@H](Cc1ccc(O)cc1)C(=O)N[C@H]1CSCc2cccc(c2)CSC[C@@H](C(=O)NCCCOCCOCCOCCCNC(=O)CCC(=O)N[C@@H](CCCCNC(=O)CCCC[C@@H]2SC[C@@H]3NC(=O)N[C@@H]32)C(N)=O)NC(=O)[C@H](CCC(N)=O)NC(=O)[C@H](Cc2c[nH]c3ccccc23)NC(=O)[C@H]([C@@H](C)O)NC(=O)[C@H](CC(C)C)NC(=O)[C@H](Cc2c[nH]c3ccccc23)NC(=O)[C@H](CC(=O)O)NC(=O)CNC(=O)[C@H](CCC(=O)O)NC1=O)C(C)C
notes: Cyclic peptide, biotinylated
- pEC50 [1]: > 8 pec50

B2: 3BP-4337 (peptide)
peptide: VDCE[dP]DWLTW[Dap]C-NH2
modifications: lactam 2-11; linker 3-12 via mXylylene; not fully specified (N-terminus); also: indium complexed by DOTA
- pIC50 [2]: > 8 pic50

B3: 3BP-4338 (peptide)
peptide: DCE[dP]DWLTW[Dap]C-NH2
modifications: lactam 1-10; linker 2-11 via mXylylene; not fully specified (N-terminus); also: indium complexed by DOTA
- pIC50 [2]: > 8 pic50

B4: 3BP-2777: H-Met-Val-Tyr-[Cys(3MeBn)-Glu-Gly-Ser-Trp-Leu-Gly-Trp-Ser-Cys]-Ttds-Lys(Bio)-NH2 (peptide)
peptide: H-MVYCEGSWLGWSC[Ttds(4)]K(Biotin)-NH2
modifications: linker 4-13 via mXylylene
SMILES: CSCC[C@H](N)C(=O)N[C@H](C(=O)N[C@@H](Cc1ccc(O)cc1)C(=O)N[C@H]1CSCc2cccc(c2)CSC[C@@H](C(=O)NCCCOCCOCCOCCCNC(=O)CCC(=O)N[C@@H](CCCCNC(=O)CCCC[C@@H]2SC[C@@H]3NC(=O)N[C@@H]32)C(N)=O)NC(=O)[C@H](CO)NC(=O)[C@H](Cc2c[nH]c3ccccc23)NC(=O)CNC(=O)[C@H](CC(C)C)NC(=O)[C@H](Cc2c[nH]c3ccccc23)NC(=O)[C@H](CO)NC(=O)CNC(=O)[C@H](CCC(=O)O)NC1=O)C(C)C
notes: Cyclic peptide, biotinylated
- pEC50 [1]: > 8 pec50

Binder: {DOTA-APAc}-VYCE[dP]D[Af3(Btda)]LTWSC-NH2 (linker 3-12 via mXylylene; reading uncertain) [3BP-4415]
- pIC50 [3]: 6.1 to 7 pic50

Binder: {DOTA-PPAc}-QCE[dP]D[Aph(6SaPyr3)]LTWSC-NH2 (linker 2-11 via mXylylene) [3BP-4481]
- pIC50 [3]: 6.1 to 7 pic50

Binder: {DOTA-PPAc}-QCE[dP]D[Aph(4SaPy2Ac)]LTWSC-NH2 (linker 2-11 via mXylylene) [3BP-4482]
- pIC50 [3]: 6.1 to 7 pic50

Binder: {DOTA}-ECE[dP]D[Phe(3-NHCO(CH2)3SO2NH2)]LTW[Dap]C-NH2 (lactam 1-10; linker 2-11 via mXylylene, also called DPI-4503) [3BP-4503]
- pKD [4]: > 8 pkd
- pKD [5]: > 8 pkd
- pKD [6]: < 6 pkd
- pKD [7]: < 6 pkd
- pKD [8]: < 6 pkd
- t1/2 (half-life of the complex, SPR) [9]: > 15 min
- pIC50 [10]: > 8 pic50

Binder: {DOTA-PPAc}-DCE[dP]D[Phe(3-NHCO(CH2)3SO2NH2)]LTW[Dap]C-NH2 (lactam 1-10; linker 2-11 via mXylylene) [3BP-4497]
- pKD [5]: > 8 pkd
- t1/2 (half-life of the complex, SPR) [9]: > 15 min
- pIC50 [11]: 7.1 to 8 pic50
